Drawing on a protein production outcome set (Wang et al. 2014), this text covers protein production for 18 sequences.

The data set in a line: label from the status in PepcDB records.
Consider “MAELLAAGPSGVAGAVARAMERSAPGSGASWYGGDHTDFRDGVFLREVIGVQVVVQEGGTAVPEAMTGLPPRPGGFTGRDRETEDLLRALDPDGAQSAAAPVASVSGLGGIGKTALAVETAHLARERGWFPGGILFIDLHGYDREPVTADRSLRTLLHALGIPPEHMPTTTDERAALYRSTLAVRAGERGGMLVLADNASSAEQVRPLLPGDFRHRVLVTSRDRLPQLGARLLPLDELGTREAYELLDRALRIADPHDGRVGDDPGTTGRLASLCGHLPLALQIAAALLAADPAKPVSELVAELAEAHDRLDHLDDGERSVRAAFELSYRRLPPEQARLLRLLALAPGPEVSDEVVAALVGADRPPVRDQHALARAHLVERGHTRGSWRLHDLVRVFGAGVVARAEGDAARARVLRHYLERARAADARLKPRTEDDEGTRPFRSREEALAWFDAERAGLVAAVQWATDRQLAADAVRLAGALGEYLDWRRRFDDSVTVCGAVCAAARRAGDEAAEAAAWNRTGTALRGNRRLREAYDAHRRAHDLYDALGHDNGRAMALSNLGAILGDVGQVDDAVDAFRLALGLFRRTGDRHSEAGVWNNLALILRKSGRVDEALDALRSALGLYRETGDRPREGRARHNYAVALNARGRTAEAVTACLDSLDICEEFEDWHGAARTLYALGLVHETAGDAERARVRMTQAADAYERAGSPKEAEQARRAARLTGPAPTGTPAPAAPPDRTADSGPPGPRPPGVPGNAGP”, for which the protein production entry is reported as “failed”.
The same measure for “MTNNLKQRRIILDLAVTLDGFIEGKNGEVDWCIMDPDMGFTDFLNQIDTILYGRKSFDLWGQYIPKNEDPDTEKELWKLVHSKKKYVFSRTQNEIDNQAIFINDNILEEVNKLKKNPGKDIWLYGGASLITTFINLGLVDEFRLSIHPVVLGEGKPLFIDVKQRINLKMVNTRTFSSGVVQIVYHWNG”: “not failed”.
With “MSEQNWTDTGRFDNKAAEWDANAIRAALADAVARAIIAHMPVGKPANALEFGCGTGLVTTRIAPHCLQLTAVDSSREMLRMLGEKIAASAIANVTPLHLDFSRPEEAAGLDRDYDFVYSSMTLHHIPDTASFLRELIGHMSPGGALAIADLDAEDGLFHNDATEKVHHGFDRTELQALLESAGFAGVSFMTAHIIEKKNREGNLKNYPVFLVTAVKPKA”, the protein production result is reported as “failed”.
The entry for “AHHHHHHGSVVKRTMTKKFLEEAFAGESMAHMRYLIFAEKAEQEGFPNIAKLFRAIAYAEFVHAKNHFIALGKLGKTPENLQMGIEGETFEVEEMYPVYNKAAEFQGEKEAVRTTHYALEAEKIHAELYRKAKEKAEKGEDIEIKKVYICPICGYTAVDEAPEYCPVCGAPKEKFVVFE” is “not failed”; for “MHGIDLHTHSNISDGTLSPSCLVDAAIACGIHTLALTDHDTMDGLETAIQQAQGHDIQIISGAEISSQWSRPNTKKAYGVHIVALNMQNPEPLLDALVIQKNIRAERAQQICQILQQCTGQDIYTDVLLKVEGEPDRITRTHIAKALVEKEIVARPQQAFDRFLKEGKRAYVKFDGLNLADTIRIIHESEGFAILAHPTRYDLSSTNVRYLIELFAKMGGDAVELPPSVDPVSTRQMIDRIIQQFDLKVSIGSDFHG” it is “failed”.
The entry for “MDTPSRRSFLLAGGSFAIGVGAGLGIAHRDDVLPSRVVWAFETTGRIVSSPTVGDGTVYVGSDDSTVHSVSTSDGTRRTTARLHTKAGVFSSPALGADGGLYVGSTDTAIYGLFSSPGARDEWRFETTDWVTASPAVADGTVYVGSTDGTMYALNAETGAEQWRFETGDGIVSSPAVVDGTVYVGSTDGTVYALDADSGTDRWQFDTEGRVYSSPTVADGTVYVGSYDANIYAIDTTDGVEQWQFETGDSIWSSPTVLEETLWIGSKDAALYAVATEDGSEQWRFPTGGEVNSSPTVAGETVYVGSDDANLYAVAASDGSERWTFETGGAVQSSPTVADGTVYVGSGDSTLYALDADETGSSEGSRAELRTLGYFAE” is “failed”; for “LTESEERWRLALDAANLGFWDWNVLTAKVVWSENHERLFGLVSGSFDGTYETFLSCVHPEDRESVIQVIGVCLENKTDYYDEFRIVWPDKSIHWIAAKGRFFYNDQGQPVRMIGVCMDITKSKRTEEN” it is “failed”.
The same measure for “MRGADGRVTDADYRELRGATETPREAVVVGLAGEVGLTSAEIPRVRPCDVAPHDHDGVTHYFLAVPGADGGSDRDAYLPPAVERDIRRRADAAGLADDDPLVDVSARRVQTLVNAVAGRTDTAGLDGVAAQDLRSFFARRLLTGAGVDPRVVAAVGGWSRLASLDQYAAVDAVDRDAIARAFDGTTRAPTDRSEQRAHDRVDEAHSAVLAAGDALSDASTRGAVETAVCEALAASDAYEMAWLARPTTRDDVTVAATAGGDRAIRDDASAAPGATLVQAALDDGTGLFTPAASAAPAVAALREHAAAAGVQAMGVVPVAGPEAAHGVLAVGASTARFSQRERTLITDLGRRVGRAVALAEQRHRLLTDTVLEVAFEVRAGSVFARAAVEQGCDLSLEGVVPGDRQTLVFFVRVAGAPADGVRDWLHDHDGVVSVRVVRDQGGEAVLAVGVAPGADLAMAVVSHGGTIRDLSAGPGGERVVAGVAPETDVRALLDALATAFPGVSLAAKRERARGDETGQRDGASLHDALTDKQAAVLRAAFHAGYFEWPRESTAEDLAADMGVTAPTLHNHLRRAQQKLLATVIDSDGGCDPDTPWPDTRQ”: “failed”; for “MKGRWVKYLLMGTVVAMLAACSSKPTDRGQQYKDGKFTQPFSLVNQPDAVGAPINAGDFAEQINHIRNSSPRLYGNQSNVYNAVQEWLRAGGDTRNMRQFGIDAWQMEGADNYGNVQFTGYYTPVIQARHTRQGEFQYPIYRMPPKRGRLPSRAEIYAGALSDKYILAYSNSLMDNFIMDVQGSGYIDFGDGSPLNFFSYAGKNGHAYRSIGKVLIDRGEVKKEDMSMQAIRHWGETHSEAEVRELLEQNPSFVFFKPQSFAPVKGASAVPLVGRASVASDRSIIPPGTTLLAEVPLLDNNGKFNGQYELRLMVALDVGGAIKGQHFDIYQGIGPEAGHRAGWYNHYGRVWVLKTAPGAGNVFSG”: “not failed”; for “QIHLFSEPQFQGHSQSFEETTSQIDDSFSTKSCRVSGGSWVVYDGENFTGNQYVLEEGHYPCLSAMGCPPGATFKSLRFI”: “not failed”.
As for “MNLMRFLRRPISLRQRLILTIGAILLVFELISVFWLWHESTEQIQLFEQALRDNRNNDRHIMREIREAVASLIVPGVFMVSLTLFICYQAVRRITRPLAELQKELEARTADNLTPIAIHSATLEIEAVVSALNDLVSRLTSTLDNERLFTADVAHELRTPLAGVRLHLELLAKTHHIDVAPLVARLDQMMESVSQLLQLARAGQSFSSGNYQHVKLLEDVILPSYDELSTMLDQRQQTLLLPESAADITVQGDATLLRMLLRNLVENAHRYSPQGSNIMIKLQEDGGAVMAVEDEGPGIDESKCGELSKAFVRMDSRYGGIGLGLSIVSRITQLHHGQFFLQNRQETSGTRAWVRLKKDQNVANQI”, the protein production result is “failed”.
The same measure for “MPEVEDMPSIALHSVMASPNAEYVRWKAHGDFISQLNYYDSMKAVISSSNHEPTALVIGFTVGATDVKEKLNEIRNVGKNVMMGSSSASLALAKRQAECNRTVFRVHKGVKAFSFCRKKNLLATGGLDRIVRVWNPYLPGKPTGVLRGHMAPVMYVHVASEENKVFSVSADNTVKIWDLETHSCCCTVSSKASGIKGELTACLYLPGPRALCVATGTLALFHLKAGSVPEPHLLRSHQEPVVCCRYNPAFRQVVSCCEASVVKVWDLETGRWVSEFIGNAGITCLAFDSSGRRLVTGGRDGDLKIWSYNNGHCLHTLQHDENQNEVCDCTYMEVNRNGCVIAVGWDRRINVYFDIPRDFHHFRKPQPHWQDDLNHGHKEDILCVAQCPPFLLATSSYDGEIIVWNVISGHMYCKLNTPSPMDPREGPDRSVSRLTFLKTRLTKLDSTAASLISNGPGGSVSFWKLFSGSGLIANFTPAREKAQVSGIVVTSGDTVAYLADQHGFIYVYDIQEYGLWGAELQPPNSTHSWEVESQKHSFLKTFDVSEGAGKGLSSSLDCTVRLCSKDGAYIGTFGQNRPWDVYTPDSWGHPRVPLEILTDPQSMPTHLVLETDVPAGCSGGRQEQGHMTEEKVLFETEKTHNPPSPEGPVVEVEVKADKSQWSAFSHDRLLLSSKTLMQDKRLLSARRKPCWKVPELKWPSIYQALQCHELDFVSALREKPDLSVTGFDLLPDYRFPRGPTEYRQCSAELLFRSLPHAAHISSVPQAPAKLWGHKQN”: “failed”; for “LPKLREDFKMQNKSVFILGASGETGKVLLKEILGQNLFSKVTLIGRRKLTFEEEAYKNVNQEVVDFEKLDVYASAFQGHDVGFCCLGTTRSKAGAEGFVRVDRDYVLKSAELAKAGGCKHFNLLSSRGADKSSSFLYLQVKGEVEAKVEELKFDRLSVFRPGVLLCDRQESRPGEWLARKFFGSLPDSWASGYAVPVVTVVRAMLNNLVSPSSGQMELLENKAILHLGKDRDVPKL”: “not failed”.
The entry for “MVTDADYRELRGATETPREAVVVGLAGEVGLTSAEIPRVRPCDVAPHDHDGVTHYFLAVPGADGGSDRDAYLPPAVERDIRRRADAAGLADDDPLVDVSARRVQTLVNAVAGRTDTAGLDGVAAQDLRSFFARRLLTGAGVDPRVVAAVGGWSRLASLDQYAAVDALEHHHHHH” is “failed”; for “MVLKGDAKRIVAMSSTHIAMLDAIGEVRCITGVSGIDYISNPDIQARRDSIGDVGYEGNINYELLLSLDPDLVLLYGVNGASAMESKLEELDIPFMYVGDYLEESPLGKAEWMVVLSEVTGKREKGEKAFAAIPVRYNALKKKVADSTLGLEHHHHHH” it is “not failed”.
The entry for “MREAGDAIARLRTLRDAAGRLVASRASLLRRAPVGLVVAAVVIPLVGCDTGPNFWFHKRASACPRPQVAQGVSGQFNQQQQEIRALRQGGFRGDFFAQLELARRYEGQRAVDKNLEDPVEAAVWYAMALANSGGYAPIAAYERRGKESRAVSRFDDCRAFERRSAYGALDRLLSRMSTEEREKVRNRVIYILSTQSADGFRTLARMHDGYFGPFGEPSDNLQAIEAYGKPSQPGAPAALDLFRRNDVDAYLYNYLAVQTGDVSAYVMLKDFERSSPQRASYGSFVETKAKRWIPPYEFYPPESPDSGVPHSDEADLSGEARESALYRIAELPFVHVGESLAYLRVIPTAVLDEKMLSVTEVQTLQSMIGRPNTGRLAPIEKVRAVQYAAVNGSSKAQLVLAVMYSEGVGVPRDYARAYHWYEEAERQGSAEAKYAMSTFFSLGLQGVADQDRAKAVVYQIDGALAGFKPSAWRLQQLLAQVSRPPRAAGERPQPRPIYGADDYRAAPRADDRDPRQDQPGSDRGGRPYNEGNY” is “failed”.
Turning to “AIAEHKEVVLLLLLFLKSGQGEPLDDYVNTQGPSLFSVTKKQLGAGSREECAAKCEEDKEFTCRAFQYHSKEQQCVIMAENRKSSIIIRMRDAVLFEK”, the protein production result was “not failed”.
The entry for “MFWDSSRLIKLIGFFCLLLAQPLHATILSSALLNEAQQLAEIEPAQAKQAAKNYLSQRELTERKESGSPSAMSREETDRSIRTPASTIEAHKIIAQADYTMGNVRSAIDNLNEAEKLAKEYQLPYMTLDVQLMRNQMIWMYDHNYSAAEDALNQIEKQLDEADSVLQRTDSVRYRLVMQRALLAAHRGDNVGAERLYAQAKSMLEDSRSDLALIDYYTSVGEFYLNSKKYNLALSELLYGYWQSIESDSGTRLAKVNRLLARLFQERRVYDKAIEYLSQAADFYDSYPSSPILADVLEQMGDIYFYQGKFNLALVHYFNVLDHESTSRNINRTIKIRLSLAATYLQLYNYALAEQYLERATELLEYADIPQLEAKAALLKSGLAYHQNDSKKVIENAKKALELVEKAPENKNFIKQQSYRLLGLGYEQAGEYQLSLQAYKKYTSLVRLEQKQLNQISEDAFRQQKEFAEQTIHYVGQSERLEQVEMEHRKFQKISFALFITVLVMFLFIMRRGVIMQRQAGEIEKLRNDLFTHSRSRLRNLRMLNVKLSRSLKKSRDTFEQWQMGELIHEPLNDRLRFVMIDLPFLRSMYVQNGYKAGLELERAFGEYLAERIEKPARLYHFSDANLLYIEPNADRDASAEVMFEKFQAWVDEFATQHNVNRIIRMGISDYPFLPRAYTAINDEELLDLLLLATHIAREVSLKDKQSHWVFLKAIDNAPAASFATGNIRTACQHAINQGLIKIHSSYKNEDDIKKILKNG” is “failed”.
